How the values were obtained:
[1] = tested on: mitochondria from HEK293T cells; assay: TMRE membrane potential of mitochondria isolated from HEK293T cells; type: biochemical; conditions: 540-600 nm light, absence of succinate
Excerpt: Stimulation of mtON with light results in polarization of the mitochondrial inner membrane. To determine whether mtON reaches the inner mitochondrial membrane in the correct orientation and to confirm the functional responsiveness of mtON, the study measured the mitochondrial membrane potential (Dym) using TMRE. The study first isolated mitochondria from HEK293T cells expressing mtON and treated them with succinate, a complex II ETC substrate, to generate a maximal mitochondrial membrane potential as a positive control (FIG. 9, panel D).
Based on this model, light stimulation of mtON results in the polarization of the mitochondrial inner membrane. To determine whether mtON reaches the inner mitochondrial membrane in the correct orientation and to confirm the functional responsiveness of mtON, the mitochondrial inner membrane potential (Δψm) was measured using tetramethylrhodamine, ethyl ester (TMRE). TMRE is a lipophilic cationic dye that accumulates in the mitochondrial matrix proportional to the mitochondrial membrane potential. First, mitochondria were isolated from HEK293T cells expressing mtON and treated them with succinate, a substrate for the ETC (complex II), to induce a maximal mitochondrial membrane potential as a positive control.

[2] = tested on: isolated C. elegans mitochondria; assay: Mitochondrial membrane potential measurement (TMRE) in isolated mitochondria; type: biochemical, Caenorhabditis elegans; conditions: mtON activation (+ATR, +light), rotenone, no added substrate, non-phosphorylating
Protocol: Isolated mitochondria at 0.5 mg/ml were stirred in mitochondrial respiration buffer (MRB: 120 mM KCl, 25 mM sucrose, 5 mM MgCl2, 5 mM KH2PO4, 1 mM EGTA, 10 mM HEPES, 1 mg/ml FF-BSA, pH 7.35) at 25° C. in the presence of 2 μM rotenone and 5 mM succinate where indicated. 300 nM tetramethylrhodamine ethyl ester (TMRE, Thermo Fisher, T669) was added to observe mitochondrial membrane potential in quench mode. Under quenching conditions, TMRE fluorescence is low in the presence of a AWm. Upon addition of a protonophore (e.g., FCCP), TMRE will exit mitochondria and dequench and increase total fluorescence. TMRE signal was measured by Cary Eclipse Fluorescence Spectrophotometer (Agilent Technologies) using a 335-620 nm excitation filter and a 550-1,100 nm emission. […] Increasing illumination time exposed mitochondria to more photons (calculated as fluence, J/cm^2). […] The average fluorescence intensity after addition of 2 μM FCCP (maximum fluorescence in quench mode) was subtracted from the starting test condition to give a change in fluorescence corresponding to changes in ΔΨm (ΔF for conditions without succinate, and ΔFmax for conditions with succinate). To represent polarization of the ΔWm, the ratio of change in fluorescence (DF, FCCP fluorescence minus experimental fluorescence) was used to the maximum change in fluorescence generated by succinate-driven Δψm (ΔFmax).

CD8+ T cells = assay: CD8+ T cell migration on ICAM-1+CXCL12; type: cell-based, mouse
Protocol: The velocity (A), displacement (B), track length (C), meandering index (D), and percent migrating cells (E) of Mock (or GFP) and mtOn expressing Day 4 CD8+ T cells migrating on ICAM-1+CXCL12. The percentage of migrating cells was calculated as the number of cells migrating 5-20 μm/min divided by the total number of cells in the field of view during the 20-minute movie. All movies received 500 nm illumination and were analyzed with Volocity software. All data shown as mean±SEM and analyzed by a two-tailed unpaired t-test with Welch's correction (A-D: includes four independent experiments, Mock: 271 cells, mtOn: 312 cells; E: n=4 movies on the same day). ns, not significant.
After confirming mtON is expressed correctly, there followed additional functional experiments, specifically looking at cell migration in CD8+ T cells expressing mtON (PA-OxPhos). The migration conditions were the same as in previously described experiments, except we now used the Texas Red filter (˜500 nm) on an epifluorescent microscope to activate mtON while CD8+ T cells are migrating on ICAM-1+CXCL12. CD8+ T cells were sorted based on GFP expression and the mock negative control cells were GFP negative. Both mock and mtON expressing CD8+ T cells were treated identically.

C. elegans [3] = assay: Healthspan: mobility on solid media and in liquid with age; type: in vivo, Caenorhabditis elegans
Excerpt: Light treatment began at day 1 of adulthood for all experiments, a, Survival curves of mtON-expressing animals (extrachromosomal array). […] One-way ANOVA with Tukey's test; n=30 animals for day 4 conditions and 40 animals for day 10. […] One-way ANOVA with Tukey's test, day 10 no ATR light versus day 10 ATR light; P=0.002, all other significant comparisons, P=0.0001; n=32, 32, 40 and 40 animals for each violin from left to right. Data are median±quartiles. f, Model showing effects of mtON activation in vivo. The dotted arrow represents the molecular mechanisms to be investigated that link Δψm to aged physiology.

C. elegans [4] = assay: Mitochondrial mass and unfolded protein response (staining, quantitative proteomics); type: in vivo, Caenorhabditis elegans
Protocol: Scale bar is 10 μm. Experiment was performed 3 times with similar results. […] Scale bar is 10 μm. Experiment was performed 3 times with similar results. C) Relative pharynx TMRE fluorescence in mtON (ex. array) animals stained at day 4 of adulthood under the indicated conditions. One-way ANOVA with Tukey's test, *p=0.0001, n=33, 34, 26, 35 animals for each bar from left to right. D) Relative pharynx MitoTracker fluorescence in animals stained at day 4 of adulthood.
Genes encoding proteins are as follows. Complex I: nuo-1, nuo-5. complex II: sdha-1, mev-1, sdhb-1. Complex III: isp-1. Complex IV: cox-5a. ATP synthase: R04F11.2, atp-5. Translocase of the outer membrane (TOM70): tomm-70. VDAC: vdac-1. Uniprot C. elegans proteome database protein codes are presented above each plot. B) Proteins that mediate the mitochondrial unfolded protein response are not affected by mtON activation, two-tailed unpaired t test, −ATR n=5, +ATR n=4 biological replicates. Genes encoding proteins are hsp-6 and hsp-60.

B1: mtON: fusion of the 187 N-terminal amino acids of mouse IMMT1 to the light-activated proton pump (Mac) from Leptosphaeria maculans (protein)
chain: MLRACQLSGVTVAAQSCLCGKFVLRPLRPCRRYSTSSSSGLTAGKIAGAGLLFVGGGIGGTILYAKWDSHFRESVEKTIPYSDKLFGMVLGSAPYTVPLPKKPVQSGPLKISSVSEVMKDSKLPVAQSQKTKGDTPASAASTGAAQIISAAGDTLSVPAPAVQHEDTIKTECPNTNEGKSTSETTEEPAGLIVDQFEEVLMKTSQLFPLPTATQSAQPTHVAPVPTVLPDTPIYETVGDSGSKTLWVVFVLMLIASAAFTALSWKIPVNRRLYHVITTIITLTAALSYFAMATGHGVALNKIVIRTQHDHVPDTYETVYRQVYYARYIDWAITTPLLLLDLGLLAGMSGAHIFMAIVADLIMVLTGLFAAFGSEGTPQKWGWYTIACIAYIFVVWHLVLNGGANARVKGEKLRSFFVAIGAYTLILWTAYPIVWGLADGARKIGVDGEIIAYAVLDVLAKGVFGAWLLVTHANLRESDVELNGFWANGLNREGAIRIGEDDGAR
modifications: Synthetic Complete mtON fusion protein sequence
[1]
  mitochondrial membrane potential (TMRE): sufficient to rescue the mitochondrial membrane potential
[2]
  polarization of Δψm (TMRE): polarize the Δψm as much as ETC-driven respiration
CD8+ T cells; vs cells expressing GFP
  overall percentage of migrating CD8+ T cells: large increase
CD8+ T cells; ~500 nm illumination, vs mock
  cell displacement: increase
  cell velocity: increase
  meandering index: increase
C. elegans [3]; day 4 and day 10, mtON activation
  locomotion on solid media: did not affect locomotion
C. elegans [3]; day 10, mtON activation
  mobility in liquid with age: improved mobility
C. elegans [4]; after mtON activation
  targets of the mitochondrial unfolded protein response: did not change
C. elegans [4]; mitochondrial staining and quantitative proteomics
  mitochondrial mass: did not impact mitochondrial mass
